From the supplement of paper PMC10567573

B1: TMEM192 (parent)
chain: ILGKVILWILHLLLECYIQYHHSK
B2: OAS1 (parent)
chain: TPAKSLDKFIEDYLLPDTCFRMQI

Variants of: B1
Test: protein stability index of a GFP-peptide fusion (GPS, HEK-293T) (PSI 1-6); higher = more stable
Details: c terminus: a fixed tail appended
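Further: lentivirally expressed fusions sorted by FACS into six bins by GFP to DsRed ratio, PSI derived from sequencing read proportions per bin multiplied by bin number.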

Protein stability index, by site and new letter:
S23: F 2.9 | G 3.2 | I 2.68 | K 2.82 | L 3.84 | M 2.49 | N 4.27 | P 1.54 | Q 2.32 | R 3.3 | V 4.52 | W 3.3 | Y 2.72
K24: A 2.69 | C 2.89 | D 2.86 | E 3.43 | F 3.92 | G 3.14 | H 2.07 | I 2.38 | L 2.65 | M 3.05 | N 3.06 | P 3 | R 3.46 | T 3.66 | V 2.48 | W 3.65

Variants of: B2
Test: as above
Details: c terminus: a fixed tail appended

Protein stability index, by site and new letter:
T1: A 2.48 | C 2.39 | D 1.82 | E 1.7 | G 3.6 | H 3.45 | I 2.59 | K 2.84 | L 3.21 | M 1.9 | N 3.42 | P 2.51 | Q 2.42 | R 4.07 | S 2.13 | V 1.06 | W 2.39 | Y 2.84
P2: C 3.55 | D 1.92 | F 3.08 | G 3.49 | H 3.76 | I 2.16 | L 2.82 | M 3.28 | N 3.68 | Q 2.97 | R 2.81 | S 1.69 | T 2.82 | V 1.74 | W 3.86
A3: C 3.23 | D 1.54 | E 2.88 | F 3.88 | G 3.77 | H 2.99 | I 3.83 | K 2.57 | L 2.85 | M 2.11 | N 2.47 | P 2.49 | Q 2.56 | R 2.23 | S 2.42 | T 1.64 | V 3.63 | W 2.58 | Y 1.96
K4: C 2.29 | D 2.19 | F 2.9 | H 2.59 | I 1.9 | L 2.23 | M 1.67 | N 2.52 | P 2.13 | S 2.24 | T 2.48 | W 3.85
S5: A 2.52 | C 2.19 | D 2.02 | E 1.74 | F 1.63 | H 1.69 | I 2.43 | K 2.14 | L 3.15 | M 2.42 | N 2.78 | Q 2.4 | R 3.08 | T 2.86 | V 3.06 | W 1.99 | Y 2.89
L6: A 2.89 | C 2.68 | D 1.38 | E 1.49 | F 4.79 | H 2.66 | I 3.63 | K 1.61 | M 2.18 | N 2.45 | P 2.43 | Q 2.47 | R 2.55 | S 1.94 | T 3.08 | V 1.97 | W 2.19 | Y 3
D7: A 2.77 | C 2.77 | H 3.9 | I 2.96 | K 2.05 | L 2.42 | M 2.87 | N 2.1 | P 1.73 | Q 2.94 | R 2.9 | S 3.08 | T 1.25 | W 3.11 | Y 2.21
K8: A 2.58 | C 2.99 | D 2.58 | E 3.06 | G 1.62 | H 1.77 | L 3.06 | M 2.04 | N 2.09 | P 3.17 | Q 1.68 | R 3.07 | S 2.43 | T 3.17 | V 3.42 | W 1.98
F9: A 2.42 | C 2.66 | D 2.17 | E 1.75 | G 1.62 | H 2.91 | K 2.13 | L 3.52 | M 3.26 | N 3.1 | P 1.97 | Q 2.15 | R 2.08 | S 2.32 | T 2.95 | V 3.9 | W 3.55 | Y 1.96
I10: A 2.48 | C 3.19 | D 1.55 | E 2.52 | F 3.41 | G 2.23 | H 1.92 | K 1.31 | L 3.56 | M 3.83 | N 1.51 | P 1.87 | Q 1.67 | R 2.78 | S 1.7 | T 2.35 | V 3.54 | Y 2.38
E11: A 2.77 | C 2.38 | D 2.34 | F 2.29 | G 3 | H 1.26 | I 2.61 | K 2.83 | L 3.59 | M 3.78 | N 3.04 | P 3.89 | Q 2.19 | R 4.73 | S 1.97 | T 2.33 | V 3.93 | W 2.84 | Y 1.66
D12: A 3.14 | C 1.76 | E 2.14 | F 2.97 | G 1.79 | H 2.25 | I 1.4 | K 2.75 | L 2.81 | M 2.77 | N 2.91 | Q 2.92 | R 3.33 | S 2.1 | T 2.58 | W 2.51 | Y 2.19
Y13: A 1.98 | C 3.56 | D 2.36 | E 1.79 | F 3.4 | G 1.85 | I 2.54 | L 3.57 | M 2.12 | N 1.85 | P 1.57 | Q 1.5 | R 1.27 | S 2.22 | T 1.9 | V 2.87 | W 3.04
L14: C 2.35 | D 1.77 | E 1.74 | F 3.94 | G 2.84 | H 2.62 | I 2.08 | K 2.37 | M 3.5 | N 3.44 | P 2.46 | Q 1.62 | R 1.8 | S 1.74 | T 2.05 | V 2.83 | W 2.18 | Y 3.1
L15: A 1.72 | D 1.74 | E 3.04 | F 3.79 | G 2.43 | H 2.12 | I 3.88 | K 2.07 | N 2.21 | P 2.31 | Q 3.04 | R 3.08 | S 2.26 | T 1.74 | V 3.19 | W 2.56
P16: A 2.73 | C 2.44 | E 1.93 | H 2.28 | I 2.41 | K 2.78 | M 1.84 | N 2.65 | Q 3.14 | R 3.61 | S 2.49 | T 2.68 | V 3.9 | W 1.9 | Y 1.82
D17: A 2.9 | E 2.69 | F 3.31 | G 3.94 | H 2.43 | K 2.51 | L 3.49 | M 2.99 | N 1.77 | P 3.25 | Q 1.88 | R 2.98 | S 2.79 | T 2.03 | Y 2.32
T18: A 2.25 | C 3.48 | D 3.16 | E 3.65 | F 2.45 | G 3.04 | H 2.22 | I 2.04 | K 1.83 | L 2.42 | M 2.36 | N 2.41 | P 1.59 | Q 2.89 | R 3.05 | V 2.23 | W 2.58 | Y 3.93
C19: A 2.88 | D 1.62 | E 1.43 | F 2.51
